# Test results published in patent publication US20180016327A1 (Chugai, published 2018).
# Molecular target: T1, human C5 (human, UniProt P01031 19-673; P01031 678-1676, Beta and alpha chains are disulfide-linked and the protein is glycosylated.)
# T1 construct: Either in-house recombinant C5 or plasma derived C5 (CALBIOCHEM) was used; also called recombinant human C5; plasma derived human C5
# Test: Biacore, captured antibody, pH 7.4, 37 C;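 further: biacore binding response of anti-C5 antibody light chain variants captured on chip with human C5 injected, ACES running buffer containing 1.2 mM CaCl₂, parent light chain antibody set to 100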
row,Binder,% binding (parent = 100) [%]
1,"CFP0021 21L 92S (antibody, V domains shown) VH: QVQLVESGGGLVQPGGSLRLSCAASGFTFSDHYMDWVRQAPGKGLEWVGRTRNKANSYTTEYAASVKGRFTISRDDSKNSLYLQMNSLKTEDTAVYYCARTGMMYWGIFDVWGQGTLVTVSS VL: DIQMTQSPSSLSASVGDRVTITCRASQSIEDDLAWYQQKPGKAPKLLIYHASTLQSGVPSRFSGSGSGTDFTLTISSLQPEDFATYYCQQHSSYPLTFGQGTKVEIK",4.8
2,"CFP0021 21L 93D (antibody, V domains shown) VH: QVQLVESGGGLVQPGGSLRLSCAASGFTFSDHYMDWVRQAPGKGLEWVGRTRNKANSYTTEYAASVKGRFTISRDDSKNSLYLQMNSLKTEDTAVYYCARTGMMYWGIFDVWGQGTLVTVSS VL: DIQMTQSPSSLSASVGDRVTITCRASQSIEDDLAWYQQKPGKAPKLLIYHASTLQSGVPSRFSGSGSGTDFTLTISSLQPEDFATYYCQQHDDYPLTFGQGTKVEIK",22.2
3,"CFP0021 21L 93G (antibody, V domains shown) VH: QVQLVESGGGLVQPGGSLRLSCAASGFTFSDHYMDWVRQAPGKGLEWVGRTRNKANSYTTEYAASVKGRFTISRDDSKNSLYLQMNSLKTEDTAVYYCARTGMMYWGIFDVWGQGTLVTVSS VL: DIQMTQSPSSLSASVGDRVTITCRASQSIEDDLAWYQQKPGKAPKLLIYHASTLQSGVPSRFSGSGSGTDFTLTISSLQPEDFATYYCQQHDGYPLTFGQGTKVEIK",37.9
4,"CFP0021 21L 93N (antibody, V domains shown) VH: QVQLVESGGGLVQPGGSLRLSCAASGFTFSDHYMDWVRQAPGKGLEWVGRTRNKANSYTTEYAASVKGRFTISRDDSKNSLYLQMNSLKTEDTAVYYCARTGMMYWGIFDVWGQGTLVTVSS VL: DIQMTQSPSSLSASVGDRVTITCRASQSIEDDLAWYQQKPGKAPKLLIYHASTLQSGVPSRFSGSGSGTDFTLTISSLQPEDFATYYCQQHDNYPLTFGQGTKVEIK",28.5
5,"CFP0021 21L 93R (antibody, V domains shown) VH: QVQLVESGGGLVQPGGSLRLSCAASGFTFSDHYMDWVRQAPGKGLEWVGRTRNKANSYTTEYAASVKGRFTISRDDSKNSLYLQMNSLKTEDTAVYYCARTGMMYWGIFDVWGQGTLVTVSS VL: DIQMTQSPSSLSASVGDRVTITCRASQSIEDDLAWYQQKPGKAPKLLIYHASTLQSGVPSRFSGSGSGTDFTLTISSLQPEDFATYYCQQHDRYPLTFGQGTKVEIK",5.2
6,"CFP0021 21L 94F (antibody, V domains shown) VH: QVQLVESGGGLVQPGGSLRLSCAASGFTFSDHYMDWVRQAPGKGLEWVGRTRNKANSYTTEYAASVKGRFTISRDDSKNSLYLQMNSLKTEDTAVYYCARTGMMYWGIFDVWGQGTLVTVSS VL: DIQMTQSPSSLSASVGDRVTITCRASQSIEDDLAWYQQKPGKAPKLLIYHASTLQSGVPSRFSGSGSGTDFTLTISSLQPEDFATYYCQQHDSFPLTFGQGTKVEIK",0.9
7,"CFP0021 21L 94H (antibody, V domains shown) VH: QVQLVESGGGLVQPGGSLRLSCAASGFTFSDHYMDWVRQAPGKGLEWVGRTRNKANSYTTEYAASVKGRFTISRDDSKNSLYLQMNSLKTEDTAVYYCARTGMMYWGIFDVWGQGTLVTVSS VL: DIQMTQSPSSLSASVGDRVTITCRASQSIEDDLAWYQQKPGKAPKLLIYHASTLQSGVPSRFSGSGSGTDFTLTISSLQPEDFATYYCQQHDSHPLTFGQGTKVEIK",2.6
8,"CFP0021 21L 94S (antibody, V domains shown) VH: QVQLVESGGGLVQPGGSLRLSCAASGFTFSDHYMDWVRQAPGKGLEWVGRTRNKANSYTTEYAASVKGRFTISRDDSKNSLYLQMNSLKTEDTAVYYCARTGMMYWGIFDVWGQGTLVTVSS VL: DIQMTQSPSSLSASVGDRVTITCRASQSIEDDLAWYQQKPGKAPKLLIYHASTLQSGVPSRFSGSGSGTDFTLTISSLQPEDFATYYCQQHDSSPLTFGQGTKVEIK",0.3
9,"CFP0021 21L 94T (antibody, V domains shown) VH: QVQLVESGGGLVQPGGSLRLSCAASGFTFSDHYMDWVRQAPGKGLEWVGRTRNKANSYTTEYAASVKGRFTISRDDSKNSLYLQMNSLKTEDTAVYYCARTGMMYWGIFDVWGQGTLVTVSS VL: DIQMTQSPSSLSASVGDRVTITCRASQSIEDDLAWYQQKPGKAPKLLIYHASTLQSGVPSRFSGSGSGTDFTLTISSLQPEDFATYYCQQHDSTPLTFGQGTKVEIK",1.3
10,"CFP0021 21L 94W (antibody, V domains shown) VH: QVQLVESGGGLVQPGGSLRLSCAASGFTFSDHYMDWVRQAPGKGLEWVGRTRNKANSYTTEYAASVKGRFTISRDDSKNSLYLQMNSLKTEDTAVYYCARTGMMYWGIFDVWGQGTLVTVSS VL: DIQMTQSPSSLSASVGDRVTITCRASQSIEDDLAWYQQKPGKAPKLLIYHASTLQSGVPSRFSGSGSGTDFTLTISSLQPEDFATYYCQQHDSWPLTFGQGTKVEIK",1.3
11,"CFP0021 21L 96F (antibody, V domains shown) VH: QVQLVESGGGLVQPGGSLRLSCAASGFTFSDHYMDWVRQAPGKGLEWVGRTRNKANSYTTEYAASVKGRFTISRDDSKNSLYLQMNSLKTEDTAVYYCARTGMMYWGIFDVWGQGTLVTVSS VL: DIQMTQSPSSLSASVGDRVTITCRASQSIEDDLAWYQQKPGKAPKLLIYHASTLQSGVPSRFSGSGSGTDFTLTISSLQPEDFATYYCQQHDSYPFTFGQGTKVEIK",39.9
12,"CFP0021 21L 96H (antibody, V domains shown) VH: QVQLVESGGGLVQPGGSLRLSCAASGFTFSDHYMDWVRQAPGKGLEWVGRTRNKANSYTTEYAASVKGRFTISRDDSKNSLYLQMNSLKTEDTAVYYCARTGMMYWGIFDVWGQGTLVTVSS VL: DIQMTQSPSSLSASVGDRVTITCRASQSIEDDLAWYQQKPGKAPKLLIYHASTLQSGVPSRFSGSGSGTDFTLTISSLQPEDFATYYCQQHDSYPHTFGQGTKVEIK",-0.7
13,"CFP0021 21L 96I (antibody, V domains shown) VH: QVQLVESGGGLVQPGGSLRLSCAASGFTFSDHYMDWVRQAPGKGLEWVGRTRNKANSYTTEYAASVKGRFTISRDDSKNSLYLQMNSLKTEDTAVYYCARTGMMYWGIFDVWGQGTLVTVSS VL: DIQMTQSPSSLSASVGDRVTITCRASQSIEDDLAWYQQKPGKAPKLLIYHASTLQSGVPSRFSGSGSGTDFTLTISSLQPEDFATYYCQQHDSYPITFGQGTKVEIK",19.7
14,"CFP0021 21L 96P (antibody, V domains shown) VH: QVQLVESGGGLVQPGGSLRLSCAASGFTFSDHYMDWVRQAPGKGLEWVGRTRNKANSYTTEYAASVKGRFTISRDDSKNSLYLQMNSLKTEDTAVYYCARTGMMYWGIFDVWGQGTLVTVSS VL: DIQMTQSPSSLSASVGDRVTITCRASQSIEDDLAWYQQKPGKAPKLLIYHASTLQSGVPSRFSGSGSGTDFTLTISSLQPEDFATYYCQQHDSYPPTFGQGTKVEIK",4.3
15,"CFP0021 21L 96W (antibody, V domains shown) VH: QVQLVESGGGLVQPGGSLRLSCAASGFTFSDHYMDWVRQAPGKGLEWVGRTRNKANSYTTEYAASVKGRFTISRDDSKNSLYLQMNSLKTEDTAVYYCARTGMMYWGIFDVWGQGTLVTVSS VL: DIQMTQSPSSLSASVGDRVTITCRASQSIEDDLAWYQQKPGKAPKLLIYHASTLQSGVPSRFSGSGSGTDFTLTISSLQPEDFATYYCQQHDSYPWTFGQGTKVEIK",0.8
